Results as given in patent US20230365696A1 (SYNTHEKINE, published 2023).

T1: extracellular domain of mIFNgR1 (mouse, UniProt P15261 26-254)
T1 construct: also called mIFNgR1 ECD; mouse IFNgR1
T1 sequence: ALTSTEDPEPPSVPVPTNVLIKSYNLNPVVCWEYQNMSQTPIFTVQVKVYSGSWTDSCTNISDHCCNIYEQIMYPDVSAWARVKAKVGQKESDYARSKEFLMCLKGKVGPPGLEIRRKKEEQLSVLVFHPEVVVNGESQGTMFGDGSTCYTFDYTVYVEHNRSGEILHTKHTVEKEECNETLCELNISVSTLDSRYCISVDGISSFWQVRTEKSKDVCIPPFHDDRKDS

T2: extracellular domain of hIFNgR1 (human, UniProt P15260 18-245)
T2 construct: also called hIFNgR1 ECD; human IFNgR1
T2 sequence: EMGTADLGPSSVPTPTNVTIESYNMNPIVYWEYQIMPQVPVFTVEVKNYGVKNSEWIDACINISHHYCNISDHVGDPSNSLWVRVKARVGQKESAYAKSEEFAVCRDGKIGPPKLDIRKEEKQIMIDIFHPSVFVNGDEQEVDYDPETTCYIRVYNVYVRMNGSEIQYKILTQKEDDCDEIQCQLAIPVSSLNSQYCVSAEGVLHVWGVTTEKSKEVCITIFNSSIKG

B1: DR923 (VHH)
VHH: QVQLVESGGGLVQAGGSLRLSCAASRRTFMTYAMGWFRQAPGKEREFVAAISWSSGSTYYADSVKGRFTISRDNAKNTMYLQMNSLKPEDTAVYYCTASSIATMYGPNDYAGQGTLVTVSS
notes: also called hIFNgR1 VHH
B2: DR903 (VHH)
VHH: EVQLVESGGGLVQAGGSLRLSCAASGRIASDYTRGWFRQAPGKEREFVAAIIRSVGDSYYADSVKGRFTISIDNAENTVYLQMNSLKPEDTAVYYCAVGGHLYYGSRWRYPASYDYWGQGTQVTVSS
notes: also called hIFNgR1 VHH
B3: DR915 (VHH)
VHH: EVQLVESGGGLVQAGGSLRLSCAAARRTLHNFAMAWFRQAPGKEREFVAAISKGGGSADYADSVKGRFTISRDNAKNTVYLQMNSLKPEDTAVYYCAANDLASYSDSSYTSTSRYDYWGQGTQVTVSS
notes: also called hIFNgR1 VHH
B4: DR914 (VHH)
VHH: EVQLVESGGGLVQAGGSLTLSCVASGRAFSNSAMAWFRQTPGKEREFVSAISRGGGSTDYADSVKGRFTISKDNAKNTVYLQMNSLKPEDTAVYYCAMRYYSGRYYESLEYDYWGQGTQVTVSS
notes: also called hIFNgR1 VHH
B5: DR916 (VHH)
VHH: EVQLVESGGGLVQPGGSLRLSCTASGRPRTTYAMGWFRQAPGKEREIVAAISKAGGSTYVADSAKGRFAISKDNAKNTVYLQMNSLKPEDTAVYYCAARAGFAAQIFEYDYWGQGTLVTVSS
notes: also called hIFNgR1 VHH
B6: DR921 (VHH)
VHH: QVQLVESGGGLVQAGDSLRLSCAASGRTFTFSTHNMGWFRQAPGKEREFVGGIMWTSRASYADSVKGRFTVSRDNAKNTVYLQMNSLKPEDTAVYYCAAAWYGNSGASYDYWGQGTQVTVSS
notes: also called hIFNgR1 VHH
B7: DR910 (VHH)
VHH: EVQLVESGGGLVQTGGSLRLSCAASGRTFSSYAMAWFRQAPGKEREFVAAISILGGSADYEDSVQGRFTISRDNAKNTMYLQMNSLKPEDTAVYYCAARRPAPSDSYWSSTSYAYWGQGTLVTVSS
notes: also called hIFNgR1 VHH
B8: DR912 (VHH)
VHH: EVQLVESGGGLVQAGGSLRLSCAPSGRTFSSYAMAWFRQPPGKEREFVAAITVSGASTYYADSVKGRFTISRDNAKNSMYLQMNSLKPEDTAVYYCAAGGPGTIFPDYDYWGQGTQVTVSS
notes: also called hIFNgR1 VHH
B9: DR925 (VHH)
VHH: EVQLVESGGGLVQAGGSLVLSCAASGRTFSRYAMGWFRQAPGKEREFVAAISIGGGSADYADTVKGRFTISRNNAKNTMYLQMNSLKPEDTAVYYCAARTPRPSSSYFTPQDYEYWGQGTLVTVSS
notes: also called hIFNgR1 VHH
B10: DR926 (VHH)
VHH: EVQLVESGGGLVQAGGSLRLSCAASGRTFSRYAMNWFRQAPGKEREFVAAISWSSGNTYVADSVKGRFTISRDNAKNTMYLQMNNLAPEDTAVYYCAATTIATMSDENTYWGQGTQVTVSS
notes: also called hIFNgR1 VHH
B11: DR908 (VHH)
VHH: EVQLVESGGGLVQAGGSLRVTCAASGRTFTSLAMGWFRQAPGKEREFVAAISRSGGSTDYADSVKGRFFISRDNAKSTLYLQMSSLKPEDTAVYYCAARDYSTLQYYNEYEYSDWGQGTQVTVSS
notes: also called hIFNgR1 VHH
B12: DR924 (VHH)
VHH: QVQLVESGGGLVQAGGSLRLSCTASGRTFSRYAMGWFRQAPGKEREFVATISRSGGTTSYANSVKGRFTISRDNAKNTVYLQMNSLKTEDTAVYNCAARDGPAMGVFGSDYDYWGQGTLVTVSS
notes: also called hIFNgR1 VHH
B13: DR909 (VHH)
VHH: EVQLVESGGGLVQAGGSLRLSCAASGRTFGTSFGALSMGWFRQAPGKEREFVAAITRNTGRTFYADSVKDRFTISRDNAKNTASLQMNSLEPEDTAVYICAATNSYDDLRRSYAYNYWGQGTQVTVSS
notes: also called hIFNgR1 VHH
B14: DR904 (VHH)
VHH: EVQLVESGGGLVQAGGSLRLSCEASESILSINTMGWFRQAPGKQRELVAAISSGGSTNYADSVKGRFTISRDNAKNTVYLQMNSLKPEDTAVYYCDADRAYYKGQGTQVTVSS
notes: also called hIFNgR1 VHH
B15: DR905 (VHH)
VHH: EVQLVESGGGLVQAGGSLRLSCVASGRTFTGYAMGWFRQAPGKEREFVAVITWSGATTYYSASVKGRFTLSRDNAKNTVYLQMNSLKSEDTAVYYCAIRIRDGVSPENPNEYGYWGQGTQVTVSS
notes: also called hIFNgR1 VHH
B16: DR920 (VHH)
VHH: EVQLVESGGGLVQAGGSLRLSCAASGRSFANYAMGWFRQAPGKERETVAAISRGGGSTWYADSVKGRFTISKDNAKNTVYLQMNSLKPEDTAIYYCAARSYSGSYTYSFGEYDYWGQGTQVTVSS
notes: also called hIFNgR1 VHH
B17: DR911 (VHH)
VHH: EVQLVESGGALVQAGGSLRLSCTVSGRSFSTYAMAWFRRAPGKERELVSAITVGGGSTYYVDSVKGRFTISRENAKNTLYLQMNNLKPEDTAIYICAARDYRRRSYAPEAEQYDYWGQGTQVTVSS
notes: also called hIFNgR1 VHH
B18: DR906 (VHH)
VHH: EVQLVESGGGLVQAGGSLRLSCAASGSTFSTYVMGWFRQAPGKEREFVAAISRSGGTTTYADSVKGRFDISRDNGKNTLFLQMNSLIPEDTAAYYCAARAGPAIGRTANDYHSWGQGTLVTVSS
notes: also called hIFNgR1 VHH
B19: DR918 (VHH)
VHH: EVQLVESGGGLVQAGGSLRLSCATSGLTDSTYGMAWFRQAPGKEREFVAAISRAGGSADHADSVKGRFTVSRDNAKKMVYLQMNSLKPEDTAVYYCASGRSYSSPYDYFNALAYSYWGQGTQVTVSS
notes: also called hIFNgR1 VHH
B20: DR922 (VHH)
VHH: QVQLVESGGGLVRAGGSLRLSCAASGSITSINTMGWFRQAPGKQRELVAAITSGGSTNYADSVKGRFTISRDNARNTVYLQMYSLKPEDTAVYYCEADSMYFRGQGTQVTVSS
notes: also called hIFNgR1 VHH
B21: DR913 (VHH)
VHH: EVQLVESGGGLVQAGGFLRLSCAASGRTFSSYAMGWFRQIPGKERELVAAISSWSGGSTYYADSVKGRFTISRDNAKNTVYLQMLSLKPEDTAVYYCTTGDYYSDYFKYDNENWGKGTQVTVSS
notes: also called hIFNgR1 VHH
B22: DR919 (VHH)
VHH: EVQLVESGGGLVQPGGFLRLSCAASRRTLSTYAMGWFRQAPGKEREFVAAISWRSGNTYYADSVKGRFTISRDNAKNTMYLQMNSLKPEDTAVYYCAANEVATMSGPHDHWGQGTLVTVSS
notes: also called hIFNgR1 VHH
B23: DR917 (VHH)
VHH: EVQLVESGGGLVQAGGSLRLSCAASGRTFSGYNMGWFRQAPGKEREFVAAIAWAGSRTYYTDSVKGRFTISRDNAKNTMYLQMNTLRPEDTAVYYCAAHDETYYRLDRVDLYTHWGQGTLVTVSS
notes: also called hIFNgR1 VHH
B24: DR907 (VHH)
VHH: EVQLVESGGGLVQAGGSLRLSCAASGRTFSNYAMGWFRQAPGNEREFVAAINWNIGSTYYADSVKGRFTISRDNAKNTVYLQMNSLKPEDTAVYYCGAVWPTGRLRVDSEYDYWGQGTQVTVSS
notes: also called hIFNgR1 VHH

How the values were obtained:
[1] = target: T1, extracellular domain of mIFNgR1; assay: flow cytometry, cross-reactivity
[2] = target: T2, extracellular domain of hIFNgR1; assay: periplasmic extract ELISA on coated antigen
Description: Upon completion of the biopanning of Example 3, three 96-well plates of individual phage clones were isolated in order to perform periplasmic extract ELISA (PE-ELISA) on IFNgR1 coated plates to identify positive VHH binders that selectively bound IFNgR1. A 96-well plate was coated with IFNgR1 and PBS under the same conditions. Next, wells were blocked at 37° C. for 1 h. Then, […] was added to each well and incubated for 1 h. Subsequently, 100 μl of anti-tag polyclonal antibody conjugated to HRP was added to each well and incubated at 37° C. for 1 h. Plates were developed with TMB substrate. The reaction was stopped by the addition of H2SO4. Absorbance at 450 nm was read on a microtiter plate reader. Antibodies with absorbance of the antigen-coated well at least threefold greater than PBS-coated control were considered to provide specific binding to IFNgR1. Positive clones were sequenced, and sequences analyzed to identify unique clonotypes

[3] = target: T2, extracellular domain of hIFNgR1; assay: flow cytometry

Binder	binding result [1]	binding result [2]	binding result [3]
B1	binds	binds	–
B2	binds	binds	–
B3	binds	binds	–
B4	binds	binds	–
B5	binds	binds	–
B6	–	binds	–
B7	binds	–	binds
B8	binds	binds	–
B9	binds	binds	–
B10	binds	binds	–
B11	binds	–	binds
B12	binds	binds	–
B13	binds	–	binds
B14	–	binds	–
B15	binds	–	binds
B16	binds	binds	–
B17	binds	–	binds
B18	binds	–	binds
B19	binds	binds	–
B20	binds	binds	–
B21	binds	binds	–
B22	–	binds	–
B23	binds	binds	–
B24	binds	–	binds
